Measurements: US20210139917

B1: peptide cyclization enzyme from Goodfellowiella coeruleoviolacea NBRC 14988 (protein)
chain: VPNEQDLGSLLARLAERHRVPGAQLSVCHDSASVTVVTGRERHGAATPVTARSAFPLGSLTKPFTAALAMVLVADGDLDLDEPVAGYHPGVTLRRLLSHTAGLESNVDEQAAAGVPRRRWVTRYPARLAPEHPPGTVFSYSNVGYLLAGHLVEEVTGLDWAEAVESVLLRPLGITPAFVVGAAGSRGVVCGHVLTDDRVLPVAEQVMPEVEAPNGALALSSADLLAFAALFSANSPAPDVLDPATAALMCQDQLADVRVGPYGMADGWGLGWARYRGAGADWFGHDGTGDGTSCHLRFDPERGTAVALTTNGSTGAALWRELCAELAERHVLPPEWGREPGEATPVAGPPDGAGHYANGPAEFVVTRQDDDGLALVLDGAQAVPLTCLPDLRFQLRLGTTVLSGRFLRDPDTGGIDHIQVTGRLARRRQVTG
B2: peptide cyclization enzyme from Streptomyces noursei NBRC 15452 (protein)
chain: VHGDSADPAGYGAGDGSPLDLDLDRLARDCDVAGGQLAVHHHGVLETWEFGEEEPGAGRPVHSATAFPYGSTTKVCTATSVLQLVGDGDLDLDRPVREWLPEAGTVPEARRDHPALAATLRQLLSHTAGLPSDHDDADASSLRRWLTGFLAAPADARPAPGTFSYSNVGYGIAGRVVESVTGLPWYEAVRDYLLRPLGTAITALPAEPGSLPAGGLAGSAADLVRLGLLHIAEPGRPDLADPAALGEATRPTAGADPFGLADGWGPGLGHFGPAEDRWLGHDGTLDGATCHLRIHPRRGTVIALTTNSPTGQALWDAVVGALRDAGIDVGVYRPAPPPSLAQGGAPAGAAAFADCTGTYRNGDLAVTVGLDGPHLVLELPGGARELAEPLARRTFAARGAGAFLGRFAVDARTGAVHALQYSGRTLLRDTGRAHGARPH
B3: recombinant SurE protein (peptide cyclization enzyme derived from Streptomyces albidoflavus NBRC 12854) (protein)
chain: VGAEGAERDAVGALFEELVREHRVTGAQLSVYRDGALSEYATGLASVRTGEPVTPRTGFPFGSVTKFLTAELVMQFVCDGDLDLDDPLAGLLPDLGRAAGPPLGTATVRQLLSHTAGVVDSIEYDEMRGPSYRRFAAACARQPALFPPGLAFSYSNTGYCLLGAVIEAASGMDWWTAMDSCLLRPLGIEPAFLHDPRPGQGGAARPVAEGHALRAGGERAEHVDHMASLSLAAAGGLVGSATDLVTAARPHLADRKTFAQHDLLPEDAVLAMRTCVPDAEPFGLADGWGLGLMRHGTGDGAWYGHDGAVGGASCNLRIHPDRSLALALTANSTAGPKLWEALVARLPEAGLDVGHYALPVPDSAPLAPDAGHLGTYANGDLELMVTHDAAGDLFLTRESYSDYRLSLHEDDLFVARSGEPGALPITGRFVREHPAGPVALLQYGGRAMHRL

How the values were obtained:
[1] = biological target: SB(L8A)-SNAC, peptide in which D-Leu at the C-terminus of SB-SNAC is substituted with D-Ala
[2] = biological target: SB(L8F)-SNAC, peptide in which D-Leu at the C-terminus of SB-SNAC is substituted with D-Phe
[3] = biological target: substrate peptide 3 (SB-SNAC), SNAC body indicated with 3 in FIG. 2a
[4] = biological target: substrate in which Ile at the N-terminus of the compound indicated in 3 of FIG. 2a is substituted with L-Trp
[5] = biological target: methyl ester of the compound indicated with 3 in FIG. 2a
[6] = biological target: substrate peptide (SNAC body) shown in FIG. 4
[7] = biological target: longer peptide (11 amino acid residues, SNAC body)
[8] = biological target: shorter peptide (7 amino acid residues, SNAC body)

Protein | peptide cyclization reaction, HPLC [1] | peptide cyclization reaction, HPLC [2] | peptide cyclization reaction, HPLC [3] | kcat/KM of the cyclization reaction relative to substrate 3 of FIG. 2a [4] | peptide cyclization reaction [5] | peptide cyclization reaction, HPLC and mass spectrometry (extracted ion chromatogram) [6] | kcat/KM of the cyclization reaction relative to substrate 3 of FIG. 2a [2] | peptide cyclization reaction, HPLC analysis of the product [3] | peptide cyclization reaction (data not shown) [7] | peptide cyclization reaction (data not shown) [8]
B1 | the two enzymes produced cyclized peptides from three substrates | the two enzymes produced cyclized peptides from three substrates | the two enzymes produced cyclized peptides from three substrates |  |  |  |  |  |  | 
B2 | the two enzymes produced cyclized peptides from three substrates | the two enzymes produced cyclized peptides from three substrates | the two enzymes produced cyclized peptides from three substrates |  |  |  |  |  |  | 
B3 |  |  |  | two to five times higher than the kcat/KM value obtained when the compound indicated with 3 in FIG. 2a was used as a substrate | even when the methyl ester was used as a substrate, the same cyclized product as in the case of using the SNAC body was produced | a product having a molecular weight corresponding to the molecular weight (m/z 1038.8) of a cyclized product of Surugamide F (cyclic Surugamide F) was detected | two to five times higher than the kcat/KM value obtained when the compound indicated with 3 in FIG. 2a was used as a substrate | cyclized the substrate peptide to give a cyclized peptide 1 (Surugamide B) as a single product | a cyclized product was observed to be obtained by the recombinant SurE | a cyclized product was observed to be obtained by the recombinant SurE
